Assay results published in patent US20180127480A1.

Legend:
[1] = biological target: biotinylated human SIRPα allele 1 domain 1 (a1d1) (human) (UniProt P78324); test: SPR, Biacore T100, biotinylated SIRPα on SA chip, 25 C, 1:1 Langmuir model
[2] = biological target: biotinylated human SIRPα allele 2 domain 1 (a2d1) (human) (UniProt P78324); test: as above
Sequence of biotinylated human SIRPα allele 2 domain 1 (a2d1) (human) (P78324 other isoform, or with tags, fused parts or gaps): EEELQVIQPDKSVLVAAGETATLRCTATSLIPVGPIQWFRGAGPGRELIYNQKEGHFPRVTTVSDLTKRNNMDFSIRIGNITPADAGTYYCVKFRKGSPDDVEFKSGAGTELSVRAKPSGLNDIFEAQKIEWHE

Sequence of biotinylated human SIRPα allele 1 domain 1 (a1d1) (human) (P78324 other isoform, or with tags, fused parts or gaps): as above

B1: high affinity CD47 variant N363 C15G (designed binder)
chain: WQLPLLFNKTKSVEFTFGNDTVVIPCFVTNMEAQNTTEVYVKWKFKGRDIYTFDGDKNKSTVPTDFSSAKIEVSQLLKGDASLKMDKSDAVSHTGNYTCEVTELTREGETIIELKYRVVSHHHHHHHH
Kd [1]: 0.296 nM
Kd [2]: 1.1 nM
